Reference: IntAct's records for PubMed 31254514

B1: Beta-crystallin A4 (Homo sapiens), P53673 (parent)
chain: MTLQCTKSAGPWKMVVWDEDGFQGRRHEFTAECPSVLELGFETVRSLKVLSGAWVGFEHAGFQGQQYILERGEYPSWDAWGGNTAYPAERLTSFRPAACANHRDSRLTIFEQENFLGKKGELSDDYPSLQAMGWEGNEVGSFHVHSGAWVCSQFPGYRGFQYVLECDHHSGDYKHFREWGSHAPTFQVQSIRRIQQ
partner: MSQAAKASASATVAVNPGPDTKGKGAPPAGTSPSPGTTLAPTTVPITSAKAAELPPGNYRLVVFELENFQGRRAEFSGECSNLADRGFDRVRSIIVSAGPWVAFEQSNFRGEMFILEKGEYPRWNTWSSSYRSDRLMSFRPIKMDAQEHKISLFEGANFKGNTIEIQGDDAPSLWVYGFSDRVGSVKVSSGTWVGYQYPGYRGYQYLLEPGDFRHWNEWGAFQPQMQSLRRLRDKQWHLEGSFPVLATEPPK
B2: Beta-crystallin A4 (Homo sapiens), P53673 (parent)
chain: B1 chain
partner: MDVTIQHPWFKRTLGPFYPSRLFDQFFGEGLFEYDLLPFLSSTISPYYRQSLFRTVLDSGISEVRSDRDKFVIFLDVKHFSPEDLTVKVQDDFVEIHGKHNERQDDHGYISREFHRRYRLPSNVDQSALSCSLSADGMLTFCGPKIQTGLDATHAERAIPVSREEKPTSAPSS

Variants of: B1
Details: with crbb1_human CRYBB1, P53674

Variant | effect of a mutation on the interaction
G64W | disrupting interaction strength

Variants of: B2
Details: with cryaa_human CRYAA

Variant | effect of a mutation on the interaction
G64W | increasing interaction strength
